Experimental data taken from the supplement of paper PMC12042874.
± gives the uncertainty stated by the source.

Assay: amyloid nucleation score (Sup35N fusion, yeast selection) (log enrichment); library NNK2; higher = more nucleation; inactive = no reads after selection
How it was run: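 Output and input plasmid inserts were sequenced by Illumina after psi-negative yeast carrying Sup35N fused to peptides of 20 random codons had been induced 24 hours with 100 μM copper sulfate and grown 7 days at 30°C on medium lacking adenine and uracil. The nucleation score is the DiMSum log enrichment of output over input reads, centred on the mode score of non-aggregating sequences. Sequences with under 100 input reads were excluded.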

In order of rising amyloid nucleation score:
1. MSMFVGTYNSFFRQSLFSAF  -1.7 ± 0.78
2. CSFDVYNSDCTTHDDIINNF  -1.43 ± 1
3. IYFESPPTRWGGYVADNCEY  -1.36 ± 0.76
4. CNRYWGRPHGYFFSSSMCMV  -1.28 ± 0.75
5. QSTFFCTLQLGSKYFKECLS  -1.22 ± 0.61
6. SIYKIILNSILPPHYNFLTY  -1.21 ± 1
7. IRKRCGINGMYRWIWVTWYL  -1.12 ± 0.33
8. PMRMKFCQWLFHPP  -0.983 ± 0.61
9. PKSHFSRFGYYKVFQRSGRS  -0.92 ± 1.1
10. VVSWKCIEYYVVE  -0.871 ± 0.78
11. AVVTPKMIMMGWTEGGINVR  -0.864 ± 0.76
12. ISFTVYGPRMVVWLQGIMFG  -0.86 ± 0.35
13. TIACLEINPHAMSDYMRLCH  -0.842 ± 0.49
14. RVPTSNLWSGNFYTALRVTG  -0.833 ± 0.63
15. WELVSGVYVTGCTFSSEDVQ  -0.785 ± 0.29
16. PIDKSVAVLDRREMSDQRIN  -0.753 ± 0.34
17. QLYLWHCGFLTTDISGSNSS  -0.713 ± 0.63
18. HVLNWTYSTRIDAGGKSIRM  -0.631 ± 0.76
19. LLAFFMWSLRQRDSGTLLLD  -0.63 ± 0.52
20. LFVRAFEPSGDHLCYQYVCL  -0.566 ± 0.38
21. IKHVEDASGKRTDSRLFTRD  -0.545 ± 0.54
22. RWFIDYHGSVFCFQKYIPPV  -0.526 ± 0.54
23. FNRDK  -0.512 ± 0.76
24. SVYQVRLLFGDLRANKAVVS  -0.494 ± 0.56
25. TDLNHACCSNPLSF  -0.468 ± 0.61
26. ERYKCVYDNDRLMSLTSPDL  -0.429 ± 0.29
27. CCNMTHYDFSGYNDGAMQDC  -0.424 ± 0.76
28. SFMDQHFS  -0.419 ± 0.63
29. IKTVIRCLDLVSFHRYGIGV  -0.401 ± 0.31
30. TNLMAFLRPFAVVTRND  -0.355 ± 0.76
31. HFNVPCNCSNCSYGTILSIT  -0.305 ± 0.8
32. FVCYADTNNGPQVVRTELSV  -0.299 ± 1.1
33. HPDGYVHRVGSLN  -0.235 ± 1.1
34. TFDLSWLVHVPDNCCHLLCF  -0.183 ± 0.28
35. WTWFESVLRPCKGLGRAPHI  -0.172 ± 0.8
36. KYCMRDDSSSLMYLWGCTRG  -0.168 ± 0.29
37. LYLGMDYWWDV  -0.164 ± 0.33
38. CVKDQSSRRRWLIYWAHSLS  -0.145 ± 0.76
39. CMPPRLWMW  -0.137 ± 1.1
40. TYTVRFENSRRTGDN  -0.13 ± 0.41
41. SNCSPLATMDCSPDFMSTF  -0.121 ± 1.1
42. CTAHYYCQGCWTSRMLNLTA  -0.116 ± 0.47
43. MNVMNQSSFHMV  -0.108 ± 1.1
44. YVDWVNRTFQWFTGDVDDPV  -0.107 ± 0.39
45. PPVMFLRWCVQAGSPWTNHC  -0.105 ± 1.1
46. LCVSAVLKLVGNLWDDEREC  -0.091 ± 0.79
47. MRSSFGK  -0.086 ± 0.5
48. STPIHDIFTPTLDRV  -0.08 ± 0.5
49. TCSCSLVFYMILARG  -0.053 ± 0.63
50. GSKDFLV  -0.047 ± 1.1
51. LTSSSSSQVWGLYVYDGHLK  -0.045 ± 0.38
52. QLCFA  -0.031 ± 0.47
53. VDCGFYSSIVAFYRYVHVPW  -0.026 ± 0.27
54. LWGYCTMLSEGH  -0.018 ± 0.2
55. CFAIFWLFECTTSSMKMTRV  0.053 ± 1.1
56. EFLRRD  0.055 ± 0.26
57. WRAIVPSGK  0.067 ± 0.63
58. RLNHGVSRSYDPPRRWAGSR  0.07 ± 0.61
59. GQVLLFCMRTTYTMDEEFNS  0.082 ± 1
60. KVTSMHVFIESWGV  0.082 ± 0.79
61. CLSASTALREGFWNPWRCGS  0.164 ± 0.8
62. KVAFLLRVGAYFDSWWHRRV  0.166 ± 0.39
63. NRWMRGDTVWNVGWWSPNWG  0.173 ± 0.46
64. RSSLMYARIHCGEVRRNFLC  0.177 ± 0.62
65. TLCLMVVFKSRYCSFRIHMM  0.21 ± 1
66. KRWCRGSE  0.229 ± 0.24
67. MVSCRN  0.237 ± 1
68. GFSEL  0.306 ± 0.65
69. ITKAASTWDLLFFVRQVCRT  0.353 ± 0.61
70. SRFRA  0.357 ± 0.27
71. GRNLMLSGVCGYKDVFLQAR  0.359 ± 0.34
72. ISGVLLWIRRFKHPICEEAW  0.371 ± 0.56
73. EEMMSRYSLTVKML  0.391 ± 0.34
74. RMLLQGVKAVGRGNNGINTV  0.479 ± 0.8
75. KGKTLLYSAKHIVFNR  0.482 ± 0.3
76. HNKVLGSSHHKLRQIPTCMC  0.484 ± 0.8
77. NLYTA  0.49 ± 0.29
78. HGLVGESVRSYQTQRQVTMA  0.544 ± 0.4
79. LLCMVIMVGFYSRSAGNTDQ  0.696 ± 0.6
80. QILWYWGREVFSRRDRFCSV  1 ± 0.68
81. KLWSSARFIWLSNHHLHGDC  1.01 ± 0.57
82. LANLTSWSILMAKRRLRLTL  1.06 ± 0.33
83. MINFDYYRYHCWCSNQHYTR  1.19 ± 0.47
84. DRRRK  1.43 ± 0.23
85. FHTLRVE  1.46 ± 0.3
86. TVVGSLSVVF  1.47 ± 0.38
87. ASFFDTVNCSWFSGIFVMGF  1.59 ± 0.21
88. FWIDYLVKFCCDLRMRMILK  1.64 ± 0.2
89. NFSVNCLYNWARYACFLKGM  1.77 ± 0.12
90. KNIAISSRVADAGFWL  2.31 ± 0.093
91. YRPNN  2.43 ± 0.14
92. VFCHLE  2.43 ± 0.13
93. TNATSGGHMLMIYEDFNVYL  2.49 ± 0.069
94. NCSYNMNKRASSMFHSGCVV  2.81 ± 0.14
95. CDPFYTSLGCSSN  2.85 ± 0.2
96. YFYLFYCEIRVPTELYLNMP  3.15 ± 0.06
97. RFMFGNVKMLCVWAKRMLDI  3.16 ± 0.12
98. RHAHWRVSSMDSVQFMWGE  3.18 ± 0.12
99. NEVVFRVYK  3.22 ± 0.068
100. RAWSIAWYAYPFLIREFECN  3.35 ± 0.079
101. ELSGGQTLLCRSVYLDVDRV  3.74 ± 0.064
102. KCTTVIYYMCIGLRH  4.98 ± 0.041
103. AVFSRYCLIYVIMLDHDTDP  5.03 ± 0.099
104. RGLISSVFVVMFDACGVIRC  5.605 ± 0.035
105. VMRLFIGAGIGRAEL  5.63 ± 0.059
106. FSSFDIMRQLTMLNICLVSW  5.773 ± 0.047
107. VMYLLNFNIMGGLSRIIGGI  6.47 ± 0.049
108. VHYVFSCCNKLPSANSRWGL  6.718 ± 0.066
109. RRNNNFLWIDLNLMLPCYDW  7.75 ± 0.08
110. MTNSLCSTCIMFYSMCMNST  7.79 ± 0.08
111. TFFYYYCMCSRTL  7.83 ± 0.061
112. SFGNYRSVWYVTDVFAHIHL  8.335 ± 0.056
113. ILLCCPVLFPINMKGSVCDK  8.463 ± 0.044

With SGNICIPFY the amyloid nucleation score was “inactive”.
In the case of DGKMNPVSAY, the amyloid nucleation score is reported as “inactive”.
For VIAGDTQGMSRGWFLGVLPW, the amyloid nucleation score was “inactive”.
In the case of SNGINN, the amyloid nucleation score is reported as “inactive”.
In the case of IFMAKFSEIPTGPVIIMFYL, the amyloid nucleation score is reported as “inactive”.
For WERVKYLLDYL, the amyloid nucleation score was “inactive”.
With YINHSHVRGIVRIYNVQV the amyloid nucleation score was “inactive”.
For KMSPQ, the amyloid nucleation score was “inactive”.
With RILWK the amyloid nucleation score was “inactive”.
With NTEFIFQELRVMSHEVCIHI the amyloid nucleation score was “inactive”.
In the case of VLTVN, the amyloid nucleation score is reported as “inactive”.
For GRKTDFHFDVRFAWGDNGFS, the amyloid nucleation score was “inactive”.
With FFVMGRSGYSLVALKREKSI the amyloid nucleation score was “inactive”.
In the case of FVEMLYLGDVGDCHILQCVY, the amyloid nucleation score is reported as “inactive”.
